Here are results for 26 molecules from patent US20260201008A1, “SECRETIN-DERIVED GLP1R SELECTIVE AGONISTS” (GUBRA A/S, priority 2023, published 2026).

For assay [1], the target named is human GLP-1 receptor (hGLP1R) (human, UniProt P43220 24-463). Nature of the assay: cell-based or functional assay.
The target in assay [2] is human secretin receptor (hSCTR) (human, UniProt P47872 23-440). The assay can be described thus: cell-based or functional assay.

Numbered stars: 1 amine (or outer) side, 2 acyl side, 3 side chain; on linkers, the order of the positions; unused ones are H or OH. Square brackets hold non-standard residues; d marks the D form. Side chains are listed from the residue outwards. Ends that are not written are not given here. * marks the point of attachment. C20 diacid = O=C(O)CCCCCCCCCCCCCCCCCCC(=O)*; γGlu = O=C(O)[C@H](CCC(=O)[*:2])N[*:1]; AEEA = NCCOCCOCC(=O)O; Aib = CC(C)(N)C(=O)O

human secretin receptor (hSCTR), sequence (P47872 23-440): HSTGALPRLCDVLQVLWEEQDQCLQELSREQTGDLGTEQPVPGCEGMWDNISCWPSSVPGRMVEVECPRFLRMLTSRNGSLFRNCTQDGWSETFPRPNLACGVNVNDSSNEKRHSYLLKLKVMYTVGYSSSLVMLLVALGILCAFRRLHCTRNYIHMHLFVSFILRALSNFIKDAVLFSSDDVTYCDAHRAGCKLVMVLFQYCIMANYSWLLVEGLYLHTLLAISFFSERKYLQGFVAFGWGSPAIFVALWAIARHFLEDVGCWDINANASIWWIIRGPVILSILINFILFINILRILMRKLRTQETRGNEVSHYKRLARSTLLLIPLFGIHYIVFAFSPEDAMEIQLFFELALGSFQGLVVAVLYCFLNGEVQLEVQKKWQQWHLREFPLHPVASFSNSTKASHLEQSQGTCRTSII

B1: SEQ ID NO: 177 (peptide)
peptide: H[Aib]EGTFTSDVSFLLEGAALQRFIQWLV-NH2
modifications: N-terminus assumed
SMILES: CC[C@H](C)[C@H](NC(=O)[C@H](Cc1ccccc1)NC(=O)[C@H](CCCNC(=N)N)NC(=O)[C@H](CCC(N)=O)NC(=O)[C@H](CC(C)C)NC(=O)[C@H](C)NC(=O)[C@H](C)NC(=O)CNC(=O)[C@H](CCC(=O)O)NC(=O)[C@H](CC(C)C)NC(=O)[C@H](CC(C)C)NC(=O)[C@H](Cc1ccccc1)NC(=O)[C@H](CO)NC(=O)[C@@H](NC(=O)[C@H](CC(=O)O)NC(=O)[C@H](CO)NC(=O)[C@@H](NC(=O)[C@H](Cc1ccccc1)NC(=O)[C@@H](NC(=O)CNC(=O)[C@H](CCC(=O)O)NC(=O)C(C)(C)NC(=O)[C@@H](N)Cc1c[nH]cn1)[C@@H](C)O)[C@@H](C)O)C(C)C)C(=O)N[C@@H](CCC(N)=O)C(=O)N[C@@H](Cc1c[nH]c2ccccc12)C(=O)N[C@@H](CC(C)C)C(=O)N[C@H](C(N)=O)C(C)C
In the case of B1, the “pEC50 hGLPR1” value in assay [1] is 10.8 -log M. For the same molecule, in assay [2], the “pEC50 hSCTR” value was 6.3 -log M.
With H[Aib]LGTFTSDVSYLK([AEEA-AEEA-γGlu-C20 diacid])EEA[Aib]LQRFLEHLV-NH2 [SEQ ID NO: 170], the “pEC50 hGLPR1” value in assay [1] is 10.6 -log M. Besides, in assay [2], the “pEC50 hSCTR” value was 4.6 -log M.
For H[Aib]EGTFTSDVSYLFEEA[Aib]LQRFLEK([AEEA-AEEA-γGlu-C20 diacid])LV-NH2 [SEQ ID NO: 176], in that order: 10.5 -log M and 5.5 -log M.
For the molecule H[Aib]EGTFTSDVSRLK([AEEA-AEEA-γGlu-C20 diacid])EEAASQRFLEHLV-NH2 [SEQ ID NO: 17], in assay [1], the “pEC50 hGLPR1” value was 10.6 -log M. In assay [2], the “pEC50 hSCTR” value is 6.6 -log M.
H[Aib]EGTFTSDVSYL[Aib]EEA[Aib]LQRFLEKLV-NH2 (not fully specified (residue 25)) [SEQ ID NO: 158]: the “pEC50 hGLPR1” value in assay [1] is 10.4 -log M. The “pEC50 hSCTR” value in assay [2] is 5.8 -log M.
For H[Aib]QGTFTSDVSYLKEEA[Aib]LQRFLEHLV-NH2 (not fully specified (residue 14)) [SEQ ID NO: 156], the “pEC50 hGLPR1” value in assay [1] is 10.8 -log M. For the same molecule, the “pEC50 hSCTR” value in assay [2] was 4.4 -log M.
On the same counts, the results for H[Aib]EGTFTSDVSTLKE[Aib]AAEQRFLEHLV-NH2 (not fully specified (residue 14)) [SEQ ID NO: 16] are 10.4 -log M and 6.9 -log M.
Take H[Aib]WGTFTSDVSYLKEEA[Aib]LQRFLEHLV-NH2 (not fully specified (residue 14)) [SEQ ID NO: 160]: the “pEC50 hGLPR1” value in assay [1] is 9.1 -log M. For the same molecule, in assay [2], the “pEC50 hSCTR” value is 4.6 -log M.
As for H[Aib]EGTFTSDVSYLHEEA[Aib]LQRFLEKLV-NH2 (not fully specified (residue 25)) [SEQ ID NO: 164], the “pEC50 hGLPR1” value in assay [1] was 10.7 -log M. Moreover, in assay [2], the “pEC50 hSCTR” value was 6.6 -log M.
Consider H[Aib]IGTFTSDVSYLK([AEEA-AEEA-γGlu-C20 diacid])EEA[Aib]LQRFLEHLV-NH2 [SEQ ID NO: 175], for which the “pEC50 hGLPR1” value in assay [1] was 10.5 -log M. Besides, the “pEC50 hSCTR” value in assay [2] was 5.1 -log M.
For the molecule H[Aib]EGTFTSDVSYLK([AEEA-AEEA-γGlu-C20 diacid])EEA[Aib]LQRFLEWLV-NH2 [SEQ ID NO: 169], the “pEC50 hGLPR1” value in assay [1] is 10.4 -log M. For the same molecule, the “pEC50 hSCTR” value in assay [2] was 6.3 -log M.
Take H[Aib]EGTFTSDVSTLK([AEEA-AEEA-γGlu-C20 diacid])EEA[Aib]LQRFLEHLV-NH2 [SEQ ID NO: 165]: in assay [1], the “pEC50 hGLPR1” value is 11.2 -log M. In addition, in assay [2], the “pEC50 hSCTR” value is 8 -log M.
For H[Aib]YGTFTSDVSYLKEEA[Aib]LQRFLEHLV-NH2 (not fully specified (residue 14)) [SEQ ID NO: 159], in that order: 9.1 -log M and 4.6 -log M.
Regarding H[Aib]EGTFTSDVSGLK([AEEA-AEEA-γGlu-C20 diacid])EEA[Aib]LQRFLEHLV-NH2 [SEQ ID NO: 167], the “pEC50 hGLPR1” value in assay [1] is 11.2 -log M. In addition, the “pEC50 hSCTR” value in assay [2] is 7 -log M.

B2: SEQ ID NO: 179 (peptide)
peptide: H[Aib]EGTFTSDVS[Aib]LLEGAALQRFIQWLV-NH2
modifications: N-terminus assumed
SMILES: CC[C@H](C)[C@H](NC(=O)[C@H](Cc1ccccc1)NC(=O)[C@H](CCCNC(=N)N)NC(=O)[C@H](CCC(N)=O)NC(=O)[C@H](CC(C)C)NC(=O)[C@H](C)NC(=O)[C@H](C)NC(=O)CNC(=O)[C@H](CCC(=O)O)NC(=O)[C@H](CC(C)C)NC(=O)[C@H](CC(C)C)NC(=O)C(C)(C)NC(=O)[C@H](CO)NC(=O)[C@@H](NC(=O)[C@H](CC(=O)O)NC(=O)[C@H](CO)NC(=O)[C@@H](NC(=O)[C@H](Cc1ccccc1)NC(=O)[C@@H](NC(=O)CNC(=O)[C@H](CCC(=O)O)NC(=O)C(C)(C)NC(=O)[C@@H](N)Cc1c[nH]cn1)[C@@H](C)O)[C@@H](C)O)C(C)C)C(=O)N[C@@H](CCC(N)=O)C(=O)N[C@@H](Cc1c[nH]c2ccccc12)C(=O)N[C@@H](CC(C)C)C(=O)N[C@H](C(N)=O)C(C)C
As for B2, in assay [1], the “pEC50 hGLPR1” value was 10.1 -log M. In addition, the “pEC50 hSCTR” value in assay [2] was 6.3 -log M.
Consider H[Aib]EGTFTSDVSFLK([AEEA-AEEA-γGlu-C20 diacid])EEA[Aib]LQRFLEHLV-NH2 [SEQ ID NO: 173], for which the “pEC50 hGLPR1” value in assay [1] was 10.9 -log M. The “pEC50 hSCTR” value in assay [2] was 6.8 -log M.
For H[Aib]EGTFTSDVS[Aib]LKEEA[Aib]LQRFLEHLV-NH2 (not fully specified (residue 14)) [SEQ ID NO: 163], in that order: 10.9 -log M and 7.4 -log M.
Take H[Aib]EGTFTSDVSELK([AEEA-AEEA-γGlu-C20 diacid])E[Aib]AAEQRFLEHLV-NH2 [SEQ ID NO: 18]: the “pEC50 hGLPR1” value in assay [1] was 10.5 -log M. For the same molecule, the “pEC50 hSCTR” value in assay [2] was 6.3 -log M.
Consider HAEGTFTSDVSYLK([AEEA-AEEA-γGlu-C20 diacid])EEA[Aib]LQRFLEHLV-NH2 [SEQ ID NO: 166], for which, in assay [1], the “pEC50 hGLPR1” value is 11.1 -log M. In assay [2], the “pEC50 hSCTR” value was 6.5 -log M.
Regarding H[Aib]EGTFTSDVSYLKEEA[Aib]QQRFLEHLV-NH2 (not fully specified (residue 14)) [SEQ ID NO: 157], in assay [1], the “pEC50 hGLPR1” value is 11.6 -log M. Also, in assay [2], the “pEC50 hSCTR” value is 6.5 -log M.
As for H[Aib]EGTFTSDVSYLKEEA[Aib]TQRFLEHLV-NH2 (not fully specified (residue 14)) [SEQ ID NO: 162], the “pEC50 hGLPR1” value in assay [1] was 12.2 -log M. The “pEC50 hSCTR” value in assay [2] is 6.9 -log M.
As to H[Aib]EGTFTSDVSYLKEEA[Aib]VQRFLEHLV-NH2 (not fully specified (residue 14)) [SEQ ID NO: 161], the “pEC50 hGLPR1” value in assay [1] was 11.4 -log M. Further, in assay [2], the “pEC50 hSCTR” value was 6.8 -log M.
Turning to H[Aib]HGTFTSDVSYLK([AEEA-AEEA-γGlu-C20 diacid])EEA[Aib]LQRFLEHLV-NH2 [SEQ ID NO: 171], the “pEC50 hGLPR1” value in assay [1] was 9.8 -log M. Moreover, the “pEC50 hSCTR” value in assay [2] was 4.5 -log M.

B3: SEQ ID NO: 178 (peptide)
peptide: H[Aib]EGTFTSDVSRLLEGAALQRFIQWLV-NH2
modifications: N-terminus assumed
SMILES: CC[C@H](C)[C@H](NC(=O)[C@H](Cc1ccccc1)NC(=O)[C@H](CCCNC(=N)N)NC(=O)[C@H](CCC(N)=O)NC(=O)[C@H](CC(C)C)NC(=O)[C@H](C)NC(=O)[C@H](C)NC(=O)CNC(=O)[C@H](CCC(=O)O)NC(=O)[C@H](CC(C)C)NC(=O)[C@H](CC(C)C)NC(=O)[C@H](CCCNC(=N)N)NC(=O)[C@H](CO)NC(=O)[C@@H](NC(=O)[C@H](CC(=O)O)NC(=O)[C@H](CO)NC(=O)[C@@H](NC(=O)[C@H](Cc1ccccc1)NC(=O)[C@@H](NC(=O)CNC(=O)[C@H](CCC(=O)O)NC(=O)C(C)(C)NC(=O)[C@@H](N)Cc1c[nH]cn1)[C@@H](C)O)[C@@H](C)O)C(C)C)C(=O)N[C@@H](CCC(N)=O)C(=O)N[C@@H](Cc1c[nH]c2ccccc12)C(=O)N[C@@H](CC(C)C)C(=O)N[C@H](C(N)=O)C(C)C
Consider B3, for which the “pEC50 hGLPR1” value in assay [1] is 10.2 -log M. In assay [2], the “pEC50 hSCTR” value is 7.2 -log M.
For H[Aib]EGTFTSDVSWLK([AEEA-AEEA-γGlu-C20 diacid])EEA[Aib]LQRFLEHLV-NH2 [SEQ ID NO: 174], in assay [1], the “pEC50 hGLPR1” value is 10.9 -log M. Besides, in assay [2], the “pEC50 hSCTR” value was 7 -log M.
With H[Aib]EGTFTSDVSILK([AEEA-AEEA-γGlu-C20 diacid])EEA[Aib]LQRFLEHLV-NH2 [SEQ ID NO: 172], the “pEC50 hGLPR1” value in assay [1] was 10.8 -log M. In assay [2], the “pEC50 hSCTR” value is 7.7 -log M.
